This is an account of results in US20100284934A1.

In test [1] the target is aggregated recombinant human α-synuclein produced by aging (amyloid fibrils) (human) (UniProt P37840). Kind of test: ELISA, α-synuclein coated at 100 pmol/well, range of peptide concentrations. For orientation: ELISA stands for enzyme-linked immunosorbent assay.
For test [2] the target is unchanged. Nature of the test: ELISA, α-synuclein coated at 200 pmol/well, range of peptide concentrations.
In test [3] the target is dopamine treated recombinant human α-synuclein (soluble aggregates, oligomers) (human) (UniProt P37840). Kind of test: ELISA, α-synuclein coated, peptide in solution.

Take “OR1, Gd-DOTA-rGtvvaGK(biotin)-rrrrrr (peptide)”: the lowest binding concentration detected in test [1] turned out to be 10 pmol/well.

Consider “OR2, Gd-DOTA-rGvvaGK(biotin)-rrrrrr (peptide)”, for which the lowest binding concentration detected in test [1] is 10 pmol/well.

On to “OR3, Gd-DOTA-rrrrrrGtvvaGK(biotin)-r (peptide)”, for which the lowest binding concentration detected in test [2] is 10 pmol/well.

“OR4, Gd-DOTA-rrrrrrGvvaGK(biotin)-r (peptide)”: in test [2], the lowest binding concentration detected was 10 pmol/well.

Regarding “OR5, Gd-DOTA-r-Sar-vva-Sar-K(biotin)-rrrrrr (peptide)”, the figures for the lowest binding concentration detected in test [3] and in test [2] were 1 pmol/well and 10 pmol/well, respectively.
